Several values for one entry are separate records, joined by “and”; a condition that tells them apart may be missing. Equal values may be shown once.
Columns and labels:
Δ34 Pox = target: T1, Δ34 Pox (Lactobacillus delbrueckii, UniProt Q1G7Z6); assay: fold activity relative to no phospholipid, same coupled assay; type: biochemical; conditions: activator; 50 mM pyruvate, 50 mM phosphate, 15 μM FAD, 300 μM TPP, pH 5.6, 25 °C; lipid suspension
T1 construct: gene pox1; C-terminal truncation lacking the last 34 residues, C-terminal His6, vector pFLAG-CTC, expressed in E. coli LOBSTR
T1 sequence (Q1G7Z6 1-582): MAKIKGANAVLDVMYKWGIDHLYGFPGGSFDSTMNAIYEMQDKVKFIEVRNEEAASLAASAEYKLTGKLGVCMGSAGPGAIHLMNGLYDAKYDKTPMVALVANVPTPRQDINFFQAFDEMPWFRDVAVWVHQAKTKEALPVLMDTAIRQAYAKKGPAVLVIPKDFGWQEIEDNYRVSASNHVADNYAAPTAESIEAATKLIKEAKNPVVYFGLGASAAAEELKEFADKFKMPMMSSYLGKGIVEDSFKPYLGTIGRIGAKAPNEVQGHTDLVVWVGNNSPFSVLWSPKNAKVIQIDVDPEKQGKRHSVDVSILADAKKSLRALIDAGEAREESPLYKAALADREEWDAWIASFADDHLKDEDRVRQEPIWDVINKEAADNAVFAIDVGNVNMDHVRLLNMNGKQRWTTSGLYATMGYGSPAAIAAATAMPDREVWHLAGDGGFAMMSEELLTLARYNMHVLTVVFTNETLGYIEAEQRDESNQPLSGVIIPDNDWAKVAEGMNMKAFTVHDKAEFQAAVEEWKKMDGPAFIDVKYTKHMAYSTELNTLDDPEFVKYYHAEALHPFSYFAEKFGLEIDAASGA

[1] = target: Pyruvate oxidase (Pox) from Lactobacillus delbrueckii strain STYM1 (Lactobacillus delbrueckii STYM1); assay: non-reducing SDS-PAGE; Coomassie stain of gel filtration fractions and of purified Pox after SDS-PAGE under non-reducing conditions; disulfide-linked dimer
[2] = target: Pyruvate oxidase (Pox) from Lactobacillus delbrueckii strain STYM1 (Lactobacillus delbrueckii STYM1); assay: SEC; Superdex 200, 20 mM Bis-Tris pH 6, 150 mM NaCl, 0.5 mL/min; 840 ug purified Pox pre-incubated with 50 mM pyruvate, 300 uM TPP, 15 uM FAD for 10 min at room temperature; molecular weight from a standard curve of protein standards

stoichiometry N [1] | stoichiometry N [2] | Compound | fold activity (Δ34 Pox)
– | – | CCCCCCCC/C=C\CCCCCCCC(=O)O[C@H](COC(=O)CCCCCCCCCCCCCCC)COP(=O)(O)OCCN [phosphotidylethanolamine (16:0–18:1)] | ~ 2 fold
2 | 10 and 5 | Pyruvate oxidase (Pox) from Lactobacillus delbrueckii strain STYM1 (enzyme) | –
